Publication PMC6899773 (Chemistry (Weinheim an Der Bergstrasse, Germany), 2019)

Target: the molecule itself
Experiment: AUC

B1: DC-SIGN extracellular domain (ECD) (domain or fragment, UniProt Q9NNX6 66-404, looked up)
chain: SISQEQSRQDAIYQNLTQLKAAVGELSEKSKLQEIYQELTQLKAAVGELPEKSKLQEIYQELTRLKAAVGELPEKSKLQEIYQELTWLKAAVGELPEKSKMQEIYQELTRLKAAVGELPEKSKQQEIYQELTRLKAAVGELPEKSKQQEIYQELTRLKAAVGELPEKSKQQEIYQELTQLKAAVERLCHPCPWEWTFFQGNCYFMSNSQRNWHDSITACKEVGAQLVVIKSAEEQNFLQLQSSRSNRFTWMGLSDLNQEGTWQWVDGSPLLPSFKQYWNRGEPNNVGEEDCAEFSGNGWNDDKCNLAKFWICKKSAASCSRDEEQFLSPAPATPNPPPA
  stoichiometry N: 4
